Test results reported in US20250270305A1 (OSAKA UNIVERSITY, published 2025).

Assays:
[1] = target: T1, recombinant human Netrin-4 (human, UniProt Q9HB63 19-628, limits assumed); assay: ELISA screening of hybridoma culture supernatant
T1 sequence: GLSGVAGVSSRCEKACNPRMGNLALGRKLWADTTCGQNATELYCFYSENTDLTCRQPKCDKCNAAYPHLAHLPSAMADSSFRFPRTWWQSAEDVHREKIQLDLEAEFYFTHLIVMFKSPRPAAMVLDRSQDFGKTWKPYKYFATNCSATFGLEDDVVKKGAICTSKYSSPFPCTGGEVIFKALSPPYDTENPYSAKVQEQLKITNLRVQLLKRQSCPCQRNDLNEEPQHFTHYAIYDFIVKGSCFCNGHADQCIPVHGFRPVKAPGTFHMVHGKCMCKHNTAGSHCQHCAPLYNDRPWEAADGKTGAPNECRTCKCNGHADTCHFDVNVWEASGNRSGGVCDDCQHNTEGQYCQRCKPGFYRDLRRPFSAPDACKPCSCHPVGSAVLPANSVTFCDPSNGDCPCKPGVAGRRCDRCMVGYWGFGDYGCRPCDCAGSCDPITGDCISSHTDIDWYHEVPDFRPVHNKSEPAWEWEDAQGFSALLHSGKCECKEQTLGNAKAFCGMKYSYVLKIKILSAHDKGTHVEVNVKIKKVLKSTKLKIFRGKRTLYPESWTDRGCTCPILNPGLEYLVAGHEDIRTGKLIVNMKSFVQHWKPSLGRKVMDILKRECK
Source text: (§1) Four mice were immunized with the epitope peptide. After four immunizations, the blood was collected to determine the antibody titers using ELISA against recombinant human Netrin-4 and TGGEVIFKALS peptide. Mouse lymphocytes with increased antibody titers were fused with myeloma cells, and cultured in HAT medium to produce hybridomas. About ten days after cell fusion, antibody production in the culture supernatant was screened by ELISA (against recombinant human Netrin-4 and TGGEVIFKALS peptide), and 95 positive wells were selected. Primary cloning was then performed by limiting dilution, followed by screening by ELISA (against recombinant human Netrin-4 and TGGEVIFKALS peptide). Secondary cloning was then performed by limiting dilution, followed by screening by ELISA (against recombinant human Netrin-4 and TGGEVIFKALS peptide). A single clone was selected. The selected clone was expanded, and cultured at a high density in a serum-free medium. The culture medium was collected and purified on a protein A column to produce IgG. Purity was measured using AKTA-FPLC, and the titer was measured by ELISA. IgG was further purified with low endotoxin levels and used for the subsequent experiments.

[2] = target: T2, TGGEVIFKALS peptide (amino acid residues 192 to 202 of human Netrin-4) (human); assay: ELISA screening of hybridoma culture supernatant
T2 construct: The immunogen was C-Ahx-TGGEVIFKALS linked to bovine thyroglobulin; The ELISA antigen is named only as the TGGEVIFKALS peptide
T2 peptide: TGGEVIFKALS
Source text: as §1

B1: anti-Netrin-4 monoclonal antibody produced by the hybridoma cell line Human Netrin-4 (192-202)-6A1 (Accession No. NITE BP-03603) (antibody, V domains shown)
VH: QVQLHQSGPELVRPGASVTLSCKASGYTFTDYEMHWVKQTPVHGLEWIGAIDPETGDTVYNQKFKGKATLTADKSSSTAYMELSSLTSEDSAVYYCVDGFSDHYWGQGTTLTVSS
VL: VLVLTQTPLSLPVRLGDRASISCRSSQSLVHSSGNTFLHWYLQKPGQSPKLLIYKVSSRFSGVPDRFSGSGSGTDFTLKISRMEAEDLGVYFCSQSTHIPYTFGGGTKLEIKR
notes: In the ELISA screens the antibody was hybridoma culture supernatant
[1]
  binding result: binds
[2]
  binding result: binds
